Measured values taken from patent publication US20260258115A1 (MAPP BIOPHARMACEUTICAL, published 2026).

B1: ADI-41371 (antibody, V domains shown)
VH: QVQLQESGPRLVKPSQTLSLTCTVSGGSITTGEHYWSWIRQSPGRGLEWIGYISYSGSTYYNPSLKSRVTISVDTSKTRISLNLRSVTAADSAVYYCARDQEDSDYIWGSSRVFDIWGQGTMVTVSS
VL: ETTLTQSPGTLSLSPGERATLSCRASQNVGNNYLAWYQQKPGQAPRVLIQDASTRATGIPDRFSGSGSGTDFTLTISRLEPEDFAVYHCQQYGSAPWTFGQGTKVEIK
notes: IgG1; also called Ab 668
B2: ADI-41365 (antibody, V domains shown)
VH: EVQLVESGGGLVKPGGSLRLSCATSGFTFSDYYMTWIRQAPGKGLEWVSYISSSGGYTNYADSVRGRFTISRDNAKRSLYLQMNSLRAEDTAVYYCARVEFSSGDVPSLFDSWGQGTLVTVSS
VL: QSVLTQPPSVSGAPGQRVTISCTGSSSNLGAGYHVHWYQQFPGTAPKPLIYGNTNRPSGVPDRFSGSKSGTSASLAITGVQAEDEADYYCQSYDYSLSGWVFGGGTKLTVL
notes: IgG1
B3: ADI-41373 (antibody, V domains shown)
VH: QVTLKESGGGLVKPGGSLRLSCAASGFTFSDYFMTWIRQAPGKGLEWVSYISSNSGYTKYAEDVKGRFSISRDNAKKTLFLQLNSLSAEDTAVYYCARVEFSSGDVPSLFDLWGQGTLVTVSS
VL: QSVLTQPPSVSGAPGQRVTISCTGSSSNIGAGYHVHWYQQLPGTAPKVLIHGNNNRPSGVPDRFSGSRSGTSASLAITGLQAEDEADYYCQSYDFSLSGWVFGGGTKLTVL
notes: IgG1; also called Ab 670
B4: ADI-41389 (antibody, V domains shown)
VH: EVQLVESGGGVVQPGRSLRLSCAASGFTFSNYAIHWVRQAPGKGLEWVAAISYDGGNKFYADSVKGRFTISRDNSRNTLYLQMNSLRPEDTAVYYCARDRWELNYGIDVWGQGTTVTVSS
VL: SYELMQPPSVSVSPGQTARITCSGDALPKQYAYWYQQKPGQAPVLVIYKDSERPSGIPERFSGSTSGTTVTLTISGVQAEDEADYYCQSADSSSTFFYVFGTGTKLTVL
notes: IgG1; also called Ab 683
B5: ADI-41370 (antibody, V domains shown)
VH: EVQLVESGGGLVKPGGSLRLSCAASGFTFSGFSMNWVRQAPGKGLEWVSSISSTSRYIYYADSVQGRFTISRDNAKNSLYLQMNSLRAEDTAVYYCARDPGGSASFVPYYYGMDVWGQGATVTVSS
VL: SYELIQPPSVSVSPGQTARITCSGDALPNQYVYWYQKKPGQAPVLVIYKDTEGPLGIPERFSGSSSGTTVTLTISGVQAEDEADYYCQSADSSGTYPYVVFGGGTKLTVL
notes: IgG1; also called Ab 667
B6: ADI-41376 (antibody, V domains shown)
VH: QVQLQESGGGVVQPGRSLRLSCAASGFTFSSYAMHWVRQAPGKGLEWVAVISFDGTANKYYADSVKGRFAISRDNSKNTLYLQMNSLRAEDTAVYYCAKDDAIYSGGWVGDAFDLWGQGTMVTVSS
VL: EIVLTQSPATLSVSPGERATLSCRASQGVNSNLAWYQQKPGQAPRLLMYGASTRATGIPARFSGSGSETEFTLTISSLQSEDFAVYYCQQYNNWPRTFGQGTKVDIK
notes: IgG1; also called Ab 673
B7: ADI-41392 (antibody, V domains shown)
VH: EVQLVESGGGVVQPGGSLRLSCAASGFEFRDYAMHWVRQAPGKGLEWVALISYDGSKIHYADSVQGRFSISRDNSKNSLYLQMNSLRSEDSAKYYCVQDHWLVPAFWGQGAQVTVSS
VL: QPVLTQPASVSGSPGQWITISCTGTSSDIGYYDYVSWYQQYPGKAPKLIIYEVSHRPSGVSNRFSGSKSGNTASLSISGLQAEDEADYYCSSYTTSNAGVFGTGTKLTVL
notes: IgG1
B8: ADI-41391 (antibody, V domains shown)
VH: EVQLLESGPGLVKPSETLSLTCTVSGGSISGYYWSWIRQPPGKGLEWIGYIYHSGGSTNYNPSLKSRVTISVDTSKNQFSLKVSSVTAADTAVYYCARLARVVTTFDFWGQGALVTVSS
VL: QPVLTQPASVSGSPGQSITISCTGTSSDVGGYNYVSWYQQKPGTAPKLMIFDVSNRPSGVSNRFSGSKSDNTASLTISGLQAEDEADYYCSSYTSSTNLVFGGGTKLTVL
notes: IgG1
B9: ADI-41372 (antibody, V domains shown)
VH: QVQLVQSGAEVKKPGSSVKVSCKASGGISSSYAISWVRQAPGQGLEWMGGIIPIFGTTNYAQKFQGRVTITADKSTSTVYMELSSLRSEDSAVYFCARAYCSGGTCYGGADYWGQGTLVTVSS
VL: SYELTQPPSVSVSPGQTARITCSGDVLPKQYAYWYQQKLGQAPLLVMYKDTERPSGIPERFSGSSSVTAVTLTISGVQAEDEADYYCQSADSTQELFGGGTKLTVL
notes: IgG1; also called Ab 669
B10: ADI-41367 (antibody, V domains shown)
VH: QVQLVQSGAAVKRPGASVKVSCKASGYTFSTNALHWVRQAPGQSLEWMGWINTDNGIPKYSERFHGRVTFTRDTSASTVYMDLSGLRSGDTAVYYCARDGSSGHWLGLSVLDNWGQGTLVTVSS
VL: QSALIQPASVSGSPGQSITISCTGTSDDVGAYNYVSWYQQYPNKAPKLVIYEVSHRPSGVSNRFSGSKSGNTASLTISGLQAEDEADYYCSSYTRSATPYVFGTGTKLTVL
notes: IgG1
B11: ADI-41369 (antibody, V domains shown)
VH: EVQLVQSGGGVVQPGRSLRLSCAASGFTFSSYGMHWVRQAPGKGLEWVAVISHDGNNKYYGDSVKGRFTISRDNSKNTLHLQMNSLRGDDTAVYYCGKDPLKGDCSGGSCYQRIDYWGQGTLVTVSS
VL: NFMLTQPHSVSESPGKTVTISCTGSSGRIASNYVQWYQQRPGSAPATVIYDDNQRPSGVPDRFSGSIDSSSNSASLTISGLKTEDEADYYCQSYDRSNHVIFGGGTKLTVL
notes: IgG1; also called Ab 666
B12: ADI-41368 (antibody, V domains shown)
VH: EVQLVESGGGVVQPGRSLRLSCAASGFIFRNYGMHWVRQAPGKGLEWVAGTSFEGRNKDYGHSVKGRFTISRDNSKDTLYLQMNSLRPEDTAVYSCAKGSSLQWSHLDWYFDLWGRGTLVTVSS
VL: DIVMTQSPSTLSASVGDRVTITCRASQSFSSWLAWYQQKPGKAPNLLIYDASTLESGVPSRFSGSGSGTEFTLTISSLQPDDFATYYCQQERTFGQGTKVEIK
notes: IgG1; also called Ab 665
B13: ADI-41385 (antibody, V domains shown)
VH: EVQLVESGGGVVQPGRSLRLSCAASGFTFSSYGMHWVRQAPGKGLEWVAVIWYDGNNEKYADSVKGRFTISRDNSKNTLYLQMNSLRAEDTAVYYCARPTQKYSSSWYWEDSIDYWGQGTLVTVSS
VL: QSVLTQPPSVFGAPGQRVTISCTGSSSNIGAGYPVHWYQQLPGTAPKLLIYGNSNRPSGVPDRFSGSKSGTSASLAITGLQAEDEADYYCQSYDSSLSGGVVFGGGTKLTVL
notes: IgG1; also called Ab 681
B14: ADI-41374 (antibody, V domains shown)
VH: QVQLVQSGAEVKKPGSSVKVSCKASGGTFSNHAIDWVRQAPGQGLEWMGRIIPMVGLATYTRKFQGRVTISVDKSTSTAYMELSSLISDDTAVYYCARRTPEMAWGYWGQGTTVTVSS
VL: DIVMTQTPSSLSASVGDRVTITCQASQDIRYYVNWYQQKPGKAPKLLIYDASTLETGVPSRFSGRGSGTDFTLIISSLQPEDIATYYCQQYGDLPTFGQGTRLEIK
notes: IgG1; also called Ab 671
B15: ADI-41366 (antibody, V domains shown)
VH: QVQLVQSGAEVKKPGESLKISCKASGYSSTTYWIGWVRQISGKGLEWMGIIYPGDSDTRYSPSFQGQVTISADRSTKTAYLQWSSLKASDTAMYYCGTSGFGVATPFDYWGQGTLVTVSS
VL: NFMLTQPHSVSESPGKTVTISCTRTSGSIAGNYVHWYQQRPGSAPTTVIYEDNQRPSGVPDRFSGSIDRSSNSASLTISGLKTEDEADYYCQSYASGIHGVFGGGTKVTVL
notes: IgG1
B16: ADI-41378 (antibody, V domains shown)
VH: EVQLVESGPGLVKPSGTLSLTCAVSGDSISSSNWWSWVRQPPGKGLEWIGEVSHSGNTDYNPSLKSRVTISVDKSKNQFSLKLSSVTAADTAVYYCARPSPCSGGSCYWFFDLWGRGTLVTVSS
VL: DIRLTQSPSSLSASVGDRVTITCRASQTINAYLNWYQQRPGKAPNLLIYAASSLQSGVPSRFSGSGSGTDFTLTISSLQPEDFATYYCQQSYKTAYTFGQGTKVEIK
notes: IgG1
B17: ADI-41375 (antibody, V domains shown)
VH: QVQLVQSGGGVVQPGRSLRLSCATSGFTFSDYAIHWVRQAPGKGLEWVAVISYDGSHKYYGDSVKGRFTISRDNSKNTLYLQMNSLRPEDTAVYYCARSRSGSYYSSAIDNWGQGTLVTVSS
VL: DIQMTQSPSSLSASVGDRVTIACRASQGISSALAWYRQRPGKAPELLIYDASTLESGVPSRFSGYGAGTDFTLTISSLQPEDFATYYCQQFNSYPSITFGQGTKVEIK
notes: IgG1
B18: ADI-41381 (antibody, V domains shown)
VH: QVQLQESGPGLVKPSQTLSLTCTVSGDSISGGEHYWSWIRQPPGKGLEWIGSIYYSGTTYYNPSLKSRLTVSVDTFKNQFSLMLSYVTAADTAVYYCARDASPAYHDYIWGSCRYFDKWGQGTLVTVSS
VL: EIVLTQSPGTLSLSPGERATLSCRASQSVSSNYLAWYQQKPGQAPRILIHGASSRATGIPDRFSGSGSGTDFTLTVSRLEPEDFAVYYCQQYGSTPYTFGQGTKVEIK
notes: IgG1; also called Ab 678
B19: ADI-41384 (antibody, V domains shown)
VH: QVQLVQSGAEVKKPGSSVRVSCKASGGTFSRYAISWVRQAPGQGLEWMGGVIPRFDKTNYAQKFQGRVMITADKSTSTAYMELSSLRSDDTAVYYCAGDRLDTKITHTWYGFGDFWGQGTTVTVSS
VL: EIVLTQSPGTLSLSPGERATLSCRASQSVTSNFLAWYQQRPGQAPRLLIYGASVRAIDIPDRFSGSGSGTDFTLTISRLEPEDFAVYYCQQYGDPFRTFGQGTKVEIK
notes: IgG1; also called Ab 680

Tests used:
[1] = target: RSV fusion glycoprotein (RSV F) on RSV-A2 virus (respiratory syncytial virus, UniProt P03420 26-574); experiment: cell-based or functional assay
[2] = target: RSV prefusion F (preF), DS-Cav1 (respiratory syncytial virus, UniProt P03420 26-513); experiment: BLI, IgG on sensor, 100 nM antigen
[3] = target: RSV postfusion F (postF), F deltaFP (respiratory syncytial virus, UniProt P03420 26-513); experiment: BLI, IgG on sensor, 100 nM antigen

| Binder | Neutralization IC50 (RSV subtype A) [1] [µg/mL] | Kd [2] [nM] | Kd [3] [nM] |
| --- | --- | --- | --- |
| B1 | > 25 | 2.96 | 0.543 |
| B2 | > 25 | 2.87 | 2.22 |
| B3 | > 25 | 3.71 | 1.18 |
| B4 | > 25 | 2.58 | 0.513 |
| B5 | > 25 | 5.59 | 1.64 |
| B6 | > 25 | 4.15 | 0.705 |
| B7 | 0.18 | 0.329 | 0.359 |
| B8 | > 25 | 0.882 | 0.479 |
| B9 | > 25 | 2.48 | 0.425 |
| B10 | > 25 | 17.6 | 4.72 |
| B11 | > 25 | 0.685 | 0.308 |
| B12 | > 25 | 3.08 | 0.878 |
| B13 | > 25 | 4.52 | 0.601 |
| B14 | > 25 | 1.39 | 0.369 |
| B15 | > 25 | 1.79 | 0.278 |
| B16 | > 25 | 2.98 | 0.739 |
| B17 | > 25 | 2.96 | 1.02 |
| B18 | > 25 | 2.6 | 1.34 |
| B19 | > 25 | 3.45 | 0.563 |
